Results published in PMC10592010.

Target: EGFP-tagged full-length AR pQ69 mutant (GFP-ARpQ69) (human) (UniProt P10275)
Assay: live-cell single-particle tracking

- residence time (RT): 16 s
Substance: Halo-tagged AR NTD pQ69 with NLS (Halo-ARNTDpQ69-NLS) (from UniProt P10275-1 1-538) (domain or fragment)
